Assay results published in article PMC10090177.

How the values were obtained:
Test in all cases: cryo-EM structure; purified SGIV virions; icosahedral capsid, block-based reconstruction at 3.5 Å; atomic model of one asymmetric unit
[1] = target: Singapore grouper iridovirus major capsid protein VP72 (Singapore grouper iridovirus (SGIV))
[2] = target: Singapore grouper iridovirus penton protein VP14 (Singapore grouper iridovirus (SGIV))
[3] = target: Singapore grouper iridovirus zip protein VP38 (P1) (Singapore grouper iridovirus (SGIV))

Substance “Singapore grouper iridovirus major capsid protein VP72 (natural protein)” has a stoichiometry N [1] of 3.

Work on “Singapore grouper iridovirus penton protein VP14 (natural protein)” yielded a stoichiometry N [2] of 5.

In the case of “Singapore grouper iridovirus zip protein VP38 (P1) (natural protein)”, the stoichiometry N [3] is reported as 2.
